The term stoichiometry N denotes the number of molecules, sites or subunits per partner or assembly.

Among the data in PMC10790770 are stoichiometry N values, retold here.

Common to all, as to experiment: cross-linking; cysteine cross-linking with CuCl2 in E. coli co-producing the T2SS lacking pulF (pCHAP8252) and PulF or PulFΔN Cys variants (pCHAP8259 derivatives); total extracts on 4%–15% SDS gradient gels, blot with anti-PulFC
Assay [1] has as its target PulF^V171C-P371C (K. oxytoca) (UniProt P15745).
Assay [2] deals with PulF^Y168C-E370C (K. oxytoca) (UniProt P15745).
Assay [3] addresses PulFΔN^V171C-P371C (K. oxytoca) (UniProt P15745).
In assay [4] the target is PulFΔN^Y168C-E370C (K. oxytoca) (UniProt P15745).

In turn, “PulF^V171C-P371C (from UniProt P15745 1-381) (natural protein)” returned a stoichiometry N in assay [1] of 3.

Turning to “PulF^Y168C-E370C (from UniProt P15745 1-381) (natural protein)”, the stoichiometry N in assay [2] came out at 3. As for “PulFΔN^V171C-P371C (from UniProt P15745 35-381) (domain or fragment)”, the stoichiometry N in assay [3] turned out to be 3.

“PulFΔN^Y168C-E370C (from UniProt P15745 35-381) (domain or fragment)”: the stoichiometry N in assay [4] was determined as 3.
